Source: the nanobody polyreactivity screen of Harvey et al. (2022)

Experiment: yeast display, Sf9 membrane polyspecificity reagent, FACS + sequencing; frameworks hold sequencing errors
Method in brief: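 A synthetic nanobody library was expressed on Saccharomyces cerevisiae BJ5465 by galactose induction for 36–48 hours. The library was stained for 1 hour at 4 °C with 10% biotinylated, detergent-solubilized Sf9 membrane reagent and enriched with streptavidin microbeads before FACS. Low and high (top ~1%) gates were set on anti-HA fluorescence for expression and streptavidin fluorescence for reagent binding, and each polyreactivity label reflects the gate of origin.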

Row | Sequence | polyreactivity (PSR sort gate)
1 | QVQLEESGGGIVQAGRSLRLSCAASGITFDANTMGWYRQAPGKERELVAAITGGGSTNYADSVKGRFTISRDNAKNTVYLHMNSPKPEDTAVYYCPADLIYKYNYWGQGTQVTVSS | low polyreactivity
2 | QVQLVESGGGLVQAGGSLRISCAASGIIFKQNVMGWYRQAPGKERELVAAITSRDGSTYYADSVKGRFTISRDNAKNTVYLQMNSLKPEDTAVYYCAANWRSPRYYLYGYWGQGTQVTVSS | high polyreactivity
3 | QVQLVESGGGFVQAGGSLRLSCAASGSTFYHNAMGWYRPAPGKERELVAAISSGGSTHYADSVKGRFTISRDNEKNTVYLQKNILKPEDTAVYYCAKARPGFLYDHWGQGTQVTVSS | high polyreactivity
4 | QVQLVESGGGLVQAGGSLRLSCAASGFIFWYYAMGWYRQAPGKERELVATITSGGSTTYADSVKGRFTISRDNAKNTVYLQMNSLKPEDTAVYYCAAKGISRYDWGQGTQVTVSS | low polyreactivity
5 | QVQLVESAAGLVQAGGSLRLSGAASGRIFRYNAMGGYRQAPGNERELVAAISSGGSTNYADSVKGRFTTSRDNAKNTVYLQMNSLKPEDTAVYYCNADSVHRYPGWGYDYWGLGTQVTVSS | low polyreactivity
6 | QVQLVESGGGLVQAGGSLRLSCAASGSTFAFYAMGWYRQAPGKERELVAAITWRVGSTYYADSVKGRFTISRDNAKNTVYLQMNSLKPEDTAVYYCAVDIPFYDSDYWGQGTQVTVSS | low polyreactivity
7 | QVQLVESGGGLVQAGGSLRISCAASGFIFRGNTMGWYRQAPGKERELVASITRGGGRTYYADSVKGRFTISRDNAKNTVYLQMNSLKPEDTAVYYCAARTRSDNSYHGGEYWGQGTQVTVSS | high polyreactivity
8 | QVQLVESGGGLVQAGGSLRLSCAASGLTIFRNAMGWYRQAPGKEREFVAGITSTDGSTYYADSVKGRFTISRDNAKNTVYLQMNSLKPEDTAVYYCAAAYRVRGRTYDSWGQGTQVTVSS | high polyreactivity
9 | QVQLVESGGGLVQAGGSLRLSCAASGFNFTTYAMGSYRHAPGKERELVAAISGRGGTTDYADSVKGRFTISRDNAKNTVYLHMNSLKPEATAVYYCAADGYPGDDYWGQGTQVTVST | high polyreactivity
10 | QVQLVESGGGLVQAGGSLRLICAASGITFLQYARGWYRQATGKERELVAVISRGSRTYYADSVKGRFTISRDNAKNTFYLQMNSLKPEDTAVYYCAAVRGLAVGYDYWGQGTQVTVSS | high polyreactivity
11 | QVQLVESGGGLVQAGGSLRLSCAASGSIFYPYAMGWYRPAPGTERELVASISWSGGSTRYADSVKGRFTISRDNAKNSVYLQMNSLKPEDTAVYYCNAGYRTRHISLYDYWGQGTQVTVSS | high polyreactivity
12 | QVQLVESGGGLVQAGGSLRLSCAASGFTFKYNVMGWYRQAPGKERELVSAISKRGGNTYYADSVKGRFTISRDIAKNTVYLQMNSLKPVDTAVYYCAADPTSPETSGQGYDYWGQGTQVTVSS | high polyreactivity
13 | QVQHVESGGGLFQAGGSLRLSCAASGITFEYYAMGWYRQAPGKERELVAAISGDGSTYYADSVKGRFTISRDNAKNTVYLQMNSLKPEDTAVYYCAAVYYRGFLYYRYYYWGQGTQVTVSS | high polyreactivity
14 | QVQLVESGGGLVQAGGSLRLSCAASGLTFPHYTMGWYRQAPGKEREFVARITGSGGRTYYADSVKGRFTISRDNAKNTVDLQRNSLKPEVTGVYYCARDRGYQSGYDYWGQGTQVSVSS | high polyreactivity
15 | QDQLVESAGGLVQAGGSLRLSCAASASIFVSYAMGWYRQAPGKERELVAAITRSGGSTYYSDSVKGRFTISRDNAKYTVYLQMNSLKPDDTAVYYCAARSYLGAYRRFYWGQGTQVTVSS | high polyreactivity
16 | QDQLVESAGGLVQAGGSLRLTCAASGFIFADNAMGWYRQAPGKERELVAGITSGGITYYADSVKGRFTISRDNAKNTVYLQMNCLKPEDTAVYYCNTTSYPEFDYWGHGTQVTVSS | low polyreactivity
17 | QVQLVESGGGLVQAGGSLRLSCAASGNIFYSYAMGWYRQAPGNERELVAAISWGGGRTYYADSVKGRFTISRDNAKNTVYLQMNSLKPEDTAVYYCNKVTRGGYDYWGQGTQVTVSS | high polyreactivity
18 | QVQLVESGGGLVQAGGSLRLSCAASGFTFGRYAMGWYRQAPGKERELVAGISSGGRTNYADSVKGRFTISRDNAKNTVYLQMNSLKPEDTAVYYCNARWYRYPPRVRLYYWGQGTQVTVSS | high polyreactivity
19 | QVQLVESGGGLVQAGGRLRLSCAASGSTFDPNAEGWYRPAPGKARELVAVIDSGDGTTYYADSVKGRVTISRDKAKNTVYLQMNSLKPEDTAVYYCAAEFHWWYAGYDYGYWGQGTQVTVSS | low polyreactivity
20 | QVQLVESGGGLVQAGGSLRLSCAASGRIFTYNAMGWYRQAPGKEWELVAVISRRGGSTYYADSVKGRFTISRDNAKNSVYLQINSLKPDDTAVYYWAADLPSYPYEFWGQGTQVTVSS | low polyreactivity
21 | QVQLVESGGGLVQAGGSLRLSCAASGFTFSAYTMGWYRQAPGKERELVADISSRGGSTYYADSVKGRFTISRDNAKNTVYLQMNSLKPEDTAVYYCAAVWYWTQDYDYWGQGTQVTVSS | low polyreactivity
22 | QVQLEESGGGLVQAGGTLRLSCAASGIIFDGNAMVWYRQAPGKERELVASITSDSSTNYADSVKGRFTISRDNAKNTVYLQMNSLKPEDTAVYYCAADHWIAPRRDYWGQGSQVTVSS | low polyreactivity

Row | Sequence | polyreactivity (PSR sort gate)
23 | QVQLVESGGGLVQAGGSLRLSCAASGNTLYRNALGWYRQAPGKERELVAAIRLSGGSTYYADSVKGRFTISRDNAKNTVYLQMNSLKPEDTAVYYCAVRIRYYTGFYSWGQGTQVTVSS | high polyreactivity
24 | QVQLVESGGGLVQAGGSLRLSCAASGIIFDTYAMGWYIQAPGKERELVAAISRSGDTTYYADSVKGRFTISRDNAKNTVYLQMNSLKPEDTAVYYCNARQSRWDKYDYWGQGTQVTVSS | high polyreactivity
25 | QVQLVESGGGLVQAGGSLRLSCAASGRIFVYNVMGWYRQAPGKERELVAAISWGTGSTYADSVKGRFTISRDNAKNTVYLQMHSLKPEDTAVYYCAADSFIPPYDHWGQGTQVTVSS | low polyreactivity
26 | QVQLVESGGGLVQAGGSLRLSCAASGGTFTYYTKGWYRQAPGKERELVAAISTGGRTYYADSVKGRFTISRDNAKNTVYLQMNSLKPEDTAVYYCNADYDETDVLGEFDYWGQGTQVTVSS | low polyreactivity
27 | QVQLVESGGGLVQAGGSLRLSCGASGRTFYRYDMGWYRQAPGKERELVASITSGGNTNYADSVKGRFTISRDNAKNTVYLQMNSLKPEDTAVYYCAKEWYRVQHYRLITEFDYWGQGTQVTVSS | high polyreactivity
28 | QVQLVESGGGLVQAGGSLRISCDASGRTFYWNAMGWYRQAPGKEREFVAAITNTAVSTYYADSVKGRFTISRDNAKNTVYLQMNSLKPEATAVYYCAKSGNAGYRTYLRDYWGQGSQVTVSS | low polyreactivity
29 | QVELVESGGGLVQAGGSLRLSCAASGFTFHSNVMGWYRQAPGKERELVAAISNGGGSTYYADSVKGRFTISRDNAKNTVYLQMNSLKPEDTAVYYCDKRTYPGFGYWGQGTQVTVSS | high polyreactivity
30 | QVQLVESGGGLVQAGGSLRLSCAASGRSFSLYAMGWYRQAPGKERELVASITGSSTYYADSVKGRFTISRDNAKNTVYLQMNSLKPEDTAVYYCNARTSAGAGVDYWGQGTQVTVSS | low polyreactivity
31 | QVQLVESGGGLVQAGGSLRLSCAASGSTFYYYAIGWYRQAPGKERELVAALSKSGGSTYYADSVKGRFTISRDNAKNTVYLQMNSLNTEDTAVYYCSARWYRFQGYGRPYRGIGGDYWGQGTQVTVSS | high polyreactivity
32 | QVQLVESGGGLVQAGGSLRLSCAASGRTFLWNAMGWYRQAPGKERELITYYADSVKWRFTISRDNAKNTVYLQMNSLKPEDTAVYYCAAEQGSSVLYDSWGQGTQVTVSS | low polyreactivity
33 | QVQLVESGGGLVQAGGSLRLSCAASGITFYGYDMGWYRQAPGKERELVAAITSDGITNYADSVKGRFTISRDNAKNTVYLQMNSLKPEDTAVYYCAADLSFYRRYEWYYYWGQGTQVTVSS | low polyreactivity
34 | QVQLVESGGGLVQAGGSLRLSCAASGSIFTGYAMGWYRPAPGKERELVAANRYTTTSTYYADSVKGRFTISRDNAKNTVYLQMHSLKPEDTAVYYCKGWRGTYSGDYWGQGTQVTVSS | high polyreactivity
35 | QVQLVESGGGLVQAGGSLRLSCAASGSILPRYAMGWYRQAPGKERELVAAITSGGITSYADSVKGRFTISRDNAKNTVYLQMNSLKPEDTAVYYCAADWYVIYDYWGQGTQVTVSS | low polyreactivity
36 | QVQLVESGGGLVQAGGSLRLSCAASGSTFDTNAMGWYRQPPGKERELVASISSAGSTNYADSVKGRFTISRDNAKNTVYLQMNSLKPEDTAVYYCAKYYGQFYPTTLGYWGQGTQVTVSS | low polyreactivity
37 | QVQLEESGGRLLQAGGSLRLSCAASGCTFGSYDMGLYRQAPGKERELVARISSDGSTNYADSVKGRFSISRDNAKNTVYLQMNSLKPEDTAGYYCARDRKRQADDIGEFDYWGQGSQVTVSS | low polyreactivity
38 | QVQLVESGGGLVQAGGSLRLSSAASGRTLRGYAMGWYRQAPGKERELVAAITWSGGSTYYADSVKGRFTISRDNAKNTVYLQMNSLKPEDTAVYYCNARSYPDLYDYWGQGTQVTVSS | low polyreactivity
39 | QVQLVESGGGLVQAGGSLRLSCAASGRSFIENVKGWYRQAPGKERELVAAIRSAGTTYNADSVKGRFTISRDNAKNTVYLQMNSLKPEDTAVDYCAATNRYYWSYFYQSKYGYWGQGTQVTVSS | low polyreactivity
40 | QVQLVESGGGLVQAGGSLRLSCAASGSTFTGNAMGWYRQAPGKERELVAAISRSGGSTFYADSVKGRFTISRDNAKNTVYLQINSLKPEDTAVYYCAAPVYLYGTVGRGDYWGQGTQVTVSS | high polyreactivity
41 | QVQLVESGGGLVQAGGSLRLSCAASGRIFKKNAMGWYRQAPGKERELVATITQRGGTTYYADSVKGRFTISRDNAKNTVYLQMNSLKPEDTAVYYCATEGYETWSYWYRGAYTYYYWGQGTQVTVSS | high polyreactivity
42 | QVQLVESGGGLVQAGGSIRLSFPASGRTFAYNAMGRYRPAPGKERELVADITSGGSTYYADSVKGRFTISRENAKNTVYLQMNRLKREDTAVYYCAAYPQFWYWDYNYWGQGTQVTVSS | high polyreactivity
43 | QVQLVESGGCLVQAGGSLRLSCAASGGTFVTYAMGWYRQAPGKERELVAAITTGGSTYYADSVKGRFTISRDNAKNTVYLQMNSLKPEDSAVYYCAAVYTGSGKRYYKGYYWGQGTQVTVSS | low polyreactivity
